# According to the domain aggregation screens of Martell et al. (2025):
# Experiment: soluble fraction after stress (log2 fold change); higher = more stays soluble; pooled small domains, quantitative proteomics
# Settings: stress: pH 4
# Outline: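 Pooled custom libraries of small protein domains were stressed at pH 4 and then measured by high-throughput quantitative proteomics. The fold change in the amount of each domain that stays soluble after the acid stress serves as a measure of aggregation propensity. Fold changes are given on a log2 scale, and higher values mean more of the domain stayed soluble.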
row,Sequence,soluble fraction (log2)
1,HMSDRQLKRQANILYTTRKLASKVGYDGLTMRGLAEASEVSPKTLYNLFSSKDELLAAALEDLVGIV,0.0711
2,HMNVKVYATIDGDNFKVSGLKPGSNVRVYSSNGSAVFEKKAGDSEMIIPAGAWTKGIYVISADDQSIKVT,-0.0844
3,HMVRSLADQVYERLRRNIVSGDLAPNARIVELDIAAQMGTSQGPVREALQRLEREGLVQRRAHSATFVTD,-0.324
4,HMNITFAENIKQFRKAKSMSMEELGKRLGKAKSSISAWENGKRTPKINELKSISEALGVTISQLLGF,-0.293
5,HMETDNEKVRTAFQNGLAAYREQDWDRAEAAFGAVLAEMPEDRPSLVYLERIAHLRKKAPPGAWDGVWI,-1.07
6,HMTSGTLTLTQDTPVYTEPNKDGGVAYVQPQGDIQWDKYIFANGDNWYSFVQKNRDQEVRFYIAYSDVG,-0.623
7,HMTKEEIVVNWLPRYTKRNLEDFGEYILLTNFNKYVEIFAEKFNVPILGRDANMISASAEGITIIN,-0.359
8,HMEITSSNELKKMISNLINSENKNNPISDSNIVEKLKENDFLVARRTVAKYRKLLGIKNVNQRKE,0.25
9,HMPSPEMLKETEKRKAEEIYRSQINLFIDDYHRLKGQYPLLEDIIDNKKDSIPIEILREISISILKNYFE,-0.926
10,HMHAQDTLMTRAGETRTVKILEIGLEEIKYRIWGLDDSPVIVIDKIDVKQIVFSNGEKMTIVQ,-1.86
11,HMDKGEQILQQALDKLPPKQRQVFEMRYFDEMPYREIATITETSEGALKASYHHAVKKIQQYISHL,-0.0313
12,HMIAAVIAQVANTNERIILEKRYLSFKSWDEIAVEMRISPRWAYTLHERALKAVDQVLSKQNNE,-2.54
13,HMDYARYGLSEKEAELIELIAQGMNNKEISAEIYLSEGTVRNYISELLEKLELRDRTQLAVYYYTHR,-1.52
14,HMRKAERHLLIKQVIDEFTIRTQEELLAKLSDYGVNATQATISRDIRDLKIVKAPDENGISRFVFF,-0.358
15,HMTSRLLTPRQRYVFDTAMKEGFYDVPRRITLTELASVLDVAKSTLSAQLHRIESTVHHAYADDIRRRS,0.0724
16,HMDIGNKIKELRTEQKMTQSDLAERLGVTKSSISSYENGSRLPSYDILLKIARIFKVSTDILLG,-0.637
17,HMNYKLESYLKKVDDQLNFIPVSDKADILSELKNTFYERLLNGQTEEEILDEMESPRELALSYMSES,-1.38
18,HMNAAYDEELDFIFSLSEKGKWEEAEAEIGLLLQKHPEDATLQRIGEWVTTQKILLRQQAVEDRIRS,-0.679
19,HMLEDDTVNTAEGIKIGDSFAAVTKAYGTDYVAAGNTYAYSKDKMTLTFVMNNDKVSTISYSLLTS,-0.412
20,HMKLTEEEFNAKRKAYLDRLETLNDEAVIKATFMEAASGLGLQKGSAEFGDLRKYFVDRIVDIK,-0.903
21,HMEQQVDYTQFIQDVRQGQIREVDVDRNGVINGIKRSGENFVTVIPGGYDRDLINDLVKQGVNATGEL,0.14
22,HMDSIKDQIYQILKEDILTGELRSGEQLVEQTIAARFNTSRSPVREAIKQLTGDGLVINITNKGTFVK,-0.0915
23,HMDVTSLDMLRFLMDQHGLRQQDLSELGSQGVVSEILAGKRELNLRHIGALARRFKVPPEVFLPA,-0.619
24,HMPDDHFIRGYVTAVLEQVLKVPSIQVEVERGVVILRGDLPGEERQELLDAVSRIHGVARVEYIPL,-0.281
25,HMVKLSDGIVEHIKSLIMAGRLKPGDKLPPEREFAATLGVSRTALREAVRTLSLMGLLDARQGEGTFVSG,0.313

row,Sequence,soluble fraction (log2)
1,HMAADDGSARAEQLREMYSLISGLDKLDKAIILMWLDERSYDEIAEVTGFTRNNVATRLHRIKSRLARQSN,-1.19
2,HMTVKKLIINEDNSGRRIDNYLLSIFNSVPRSKIYNIIRKGEVRVNSSRIKPSYRLEEGDQVRIPPNLDYT,-0.0871
3,HMDASSTGFLGKHVQIVGLVSQPHLNGRRGVASRFDSNRRRYLVRLDEIDGHAEVVAFRPDNLVLSNLL,-0.0982
4,HMKMNRELNQRQIKMLDYLSVNPKTTRKQYTKMMGISFMTSYRDIQELIDKAYIISKGQGRGTYYILAN,-0.0196
5,HMEVTYQETLRVLYNAIDKLPPQTKEIILIGLDGKDNNEIAATLNISVNTVKTLKKNAYKTLRELLVD,-0.601
6,HMAEAAVELSQQILARLLEAGGSLPLSDKSSPEDIHRLFGVSKRTFKKAIGGLYKKGLILIHPERIELP,-0.0448
7,HMGEGRVRLAQEAANRFMTAMAGDRPGFEEAGRALFAGDRARFHAETEGWPEDIRDHARRLAEPALQ,-0.0593
8,HMEWTDHLAEELRSLAVEGEHLEIIANKLGISPGSARAKLVNLNIYNDYQLAHIERLEADTLQAK,-0.967
9,HMNPGQIIRKLRQDQGMTLAVLAKYANLDPGNLSRIERDDLNISFNLLEKLSLILNVSPIVFFH,-0.0716
10,HMSSAMDMISRDVRNADSISISTTTYSKKIDLYNFDRNGDIEELHSYSAKNDLGILYNDEPI,0.191
11,HMLDKEDNANAGKTLLERELSRAHLSDVEHRELAQRLHLASEQELYIKIGSGDLSIIQALNRAKEFKDT,-0.8
12,HMAIGTDPETGISVVADGTDFIWTRSGATSTIFLRLDSENSYILNVKQGDFEVIDYELGEGQENAINIDQS,-0.463
13,HMPISQGATVKHNANMRKGASTKYKVTGVLQEGEEVKILSQSNGWYKIQNSDNEKGWTYNTHINASDK,-0.0274
14,HMGDSEMPVSEVVRLAKLDQISSIEISGTKLTIITNNLETYTSRIEENSTIIEILQRAGVDIGGLEIYPHG,-0.983
15,HMPDPLVEIRSAVHSNYAGMIAMLGADNRVYLGREEHYSYQDGQPGQYDNRDGSLLFVSDQPDIYYFL,-1.21
16,HMELVEVGDLTGLTVEQAENVLKNSNISISIDKYDESDKYEKDQIISQNPQNKKVKKGTAIHVVLSNGP,-0.181
17,HMLDLPVKTINGKQYYYYTVKKGDTVYSLITRFGITRSDLVESNPAAADVLKTGDTLYFAVDKFG,0.0813
18,HMIANDDEIRKVVLEVIEEQPKAVEDVKNGRDRILDFLVGQVMKKTRGKANPSLASNLMKEEIEK,-0.11
19,HMDVPVEVFMERIVTALREGRKTTFSELMEGKPERGKVIGTFLALLQLSKGQQIQIHQEQRTGEISIEGGA,-1.03
20,HMSRSLEIDVLVKALLEQDRRKFMLVTDGTADVTVRYNNALPSLFREGQGVVAEGLMDNGKFIATNVLAK,-0.793
21,HMQISDESQLREVVSKILEENEQSVIDYKNGKTRAMGFIIGQVMKATRGKANPQLVNEIVKEMLDE,-0.137
22,HMRSWRDQRVDDLLAAVSELGMTMSRAAAGDLLDQRVEYVANQMRVTPATARKYLTEETLAGMAREIVFG,-0.83
23,HMKTGTVQDFIAKYGMSSKSPSSWFNSLTQIQKAEAKALKAQSGLTWNEWYEKNIYNGDGSNL,-0.119
24,HMRDFLMDSTKNKLSKDQVQLSRIFLWFGNDFGSKAERLEFISRYSGMDFNQPKIDYLTYDWSLNQ,-0.207
25,HMEVTLEEKLSYVEEYAKVHSHFSFRDLLKKQASKTQIVVTFLAILELMKTGKIQITQEHIFDDIVITAK,-0.649

row,Sequence,soluble fraction (log2)
1,HMKMLKAPIPGTIIEVKVNPGQTVNDGDVAVVLEAMKMESDIHFNSSGKVKKIHVNKGDSVQEGDDLIELE,-0.605
2,HMLQVSDENFVVELVQKVLLDNPSSVQEYKNGKESVLQFLIGQAMKASKGTANPQIVKEIMLKLL,-0.443
3,HMLKLPVEYLNLKYQLMHATSLDKPNNLMKLDEKLGKIIDVYYDDLPVDEQRVVDILQSKLYSY,-1.72
4,HMATQMSSARRGIATDEMKQVAKDEDVTLDWLLPKIAIGSIIIPSNNVRPQKIHNVGIGKGMKTKVN,-0.246
5,HMYFGDADGNKKVDAADALYLKRHLADWEDYRELPQKTNVSWMDEASPANLMILERHIAGWKDYEMLPYT,-0.19
6,HMLPADETEARVLNVLGSEPLHVDEIRNQADLPIEKISATLAMMELKGMVRQVGGMNYVAMR,-0.892
7,HMDDMVLEIGPGIGTMTQYLAEAAGKVVAVEIDRNLLPILQETLADYDNVKVIHADVLSLDLEKLVQEE,-0.868
8,HMANLNFDMSQIVASRYQEKAAELGVTAPSLARTDYNTQEQATYEFVAREIIADYYDDRVAPFNDLIPE,-0.967
9,HMLLSYDIAEYIEKYIHEHGLQPGDRLPTERELAAQLDITRVSVRQGYKRLLDQGVIRSENGYYVNPPR,0.0914
10,HMPTLTPFDVARIENAINPRLNLETAAKLKPWIAAGYTAQETADGTGFSPDTVKKYAAIFRK,0.146
11,HMTEDQDWAIFKQKLKAQTEIDLDLYKEPQMKHRIKNLIQNAGFDSYVQYFDYVYLNQDRLAAFLENLTV,-1.15
12,HMRRNLSGEDTIVNRMAQWQYTQEQKNELHKMMDAGMPQEDILSVFYPEIKAEEMHRFLLAFQTAHNSG,-0.0487
13,HMVDKSYIHNQQVASDTWTVQHNLGKYPAVSVADTGNNEVYGDVRHINENTVELKFSHPFSGVAFF,-0.0737
14,HMRQQAFWALVPEERDVLDETGAPLFRIGPTAWALVIEDRGEVFVVRDEDGRVGYLHEVDGVTR,-1.94
15,HMVSLRQQVYDYLRSQMNQGELRPGSAINLGEMSSRFGISRTPLREALLQLETEGFVTIYPRKGIIVN,-0.243
16,HMSKNDLAGDEADVYKLLSVETGKPISDLVNRLPFGKSKTREILNTLAEKGFVYISGSGRGTKYHR,-0.403
17,HMRSNIYTEEKLWTVLQDFFQENRYLTISLMRMKFGLSRHMAQKWIDHFIAKGLLVKDGTPRSPIYFLND,-0.538
18,HMDAVLMEYDRLLALELTEDPDVYQDLLDKVREQSLGADGRVTDKYREKFDAVATRFDDYEDNYQW,-0.62
19,HMDDTRLELTLLGKIHNDEEINKQSHINVNIKNGVILLTGESPRREITERILTLARTFEHTRQIVNQIAT,-0.515
20,HMGSVVATLRKLIIDGHYPAGTRLAEIPVANALGVSRTPVRLAFRTLQQEGLLQTVGKRGIVVRAF,0.137
21,HMFDVRWEQGYALAAAYAQEYGNLDVPRDYKTADGKKLGRWIQSQEQAYEQKKLSEEQISRLEMIGMQWG,0.0698
22,HMDTNRIIGNKIYQLRRSINMTQQELAEKVGISVTFLSEIENGRKSMSVDTLIKLSKGLQVSLDTIVF,-0.831
23,HMKRDNETRRRIVAAAEELFRAKGLDGVNMRELAEMAGVNKGLLHYYFKTKQALFREILVGQMAL,-0.0908
24,HMDNFQFIGYSQQQGQIAVAWIKSLDNGRLVRVEVSDSLEGWRVSDISAQGVNLTKGQQWLMLKRL,-1.37
25,HMSPQIDYFDDEELDVYRQIAPEAYTDEQIEVFRDILYTLRPEEVEEWLISLEKREINLPLILRQEAIELI,0.156
